Reference: patent US20170210813A1 (Regeneron, published 2017)

T1: Macaca fascicularis PDGFRb.mmh (Macaca fascicularis)
T1 construct: Soluble monomeric construct; also called mfPDGFRb.mmh
T1 chain: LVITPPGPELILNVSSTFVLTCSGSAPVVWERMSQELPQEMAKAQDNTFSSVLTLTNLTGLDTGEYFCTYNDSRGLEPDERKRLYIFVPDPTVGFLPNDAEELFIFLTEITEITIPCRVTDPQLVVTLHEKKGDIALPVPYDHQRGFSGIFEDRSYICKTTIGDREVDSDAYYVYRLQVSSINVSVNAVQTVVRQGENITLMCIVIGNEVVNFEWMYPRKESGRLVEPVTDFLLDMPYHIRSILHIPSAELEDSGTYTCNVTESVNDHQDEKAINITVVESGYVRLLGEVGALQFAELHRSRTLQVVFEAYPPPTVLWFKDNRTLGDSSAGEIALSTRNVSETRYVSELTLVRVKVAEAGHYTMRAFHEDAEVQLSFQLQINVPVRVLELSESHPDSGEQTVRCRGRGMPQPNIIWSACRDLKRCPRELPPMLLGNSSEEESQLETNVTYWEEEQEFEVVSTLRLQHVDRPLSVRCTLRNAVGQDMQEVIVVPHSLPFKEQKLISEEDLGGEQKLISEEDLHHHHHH

T2: human PDGFRb.mFc (human)
T2 construct: Soluble dimeric construct with mouse Fc; also called hPDGFRb.mFc; soluble human PDGFR-beta.mFc
T2 chain: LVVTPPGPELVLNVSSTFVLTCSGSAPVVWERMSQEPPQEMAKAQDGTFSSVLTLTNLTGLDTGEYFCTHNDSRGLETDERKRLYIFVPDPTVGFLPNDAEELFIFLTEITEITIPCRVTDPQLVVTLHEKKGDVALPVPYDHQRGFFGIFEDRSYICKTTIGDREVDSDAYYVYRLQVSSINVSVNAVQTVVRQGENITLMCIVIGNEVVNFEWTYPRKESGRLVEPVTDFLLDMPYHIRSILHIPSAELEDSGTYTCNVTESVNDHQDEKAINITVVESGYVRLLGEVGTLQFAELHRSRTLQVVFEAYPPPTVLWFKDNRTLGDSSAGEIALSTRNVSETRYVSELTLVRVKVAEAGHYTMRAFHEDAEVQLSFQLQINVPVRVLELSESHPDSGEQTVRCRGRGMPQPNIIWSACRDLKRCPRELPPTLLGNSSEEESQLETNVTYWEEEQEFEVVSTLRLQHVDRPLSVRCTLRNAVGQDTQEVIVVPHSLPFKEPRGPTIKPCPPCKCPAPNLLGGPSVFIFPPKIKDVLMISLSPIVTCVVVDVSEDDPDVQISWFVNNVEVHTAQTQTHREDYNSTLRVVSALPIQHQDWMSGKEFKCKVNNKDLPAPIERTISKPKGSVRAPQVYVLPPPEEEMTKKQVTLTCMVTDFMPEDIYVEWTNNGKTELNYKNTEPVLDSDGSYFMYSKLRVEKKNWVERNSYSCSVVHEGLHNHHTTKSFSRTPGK


How the values were obtained:
[1] = biological target: T1, Macaca fascicularis PDGFRb.mmh; test: SPR, mAb captured, 25 C
Description: (§1) Antibodies, expressed as either mouse Fc (prefix H1M; H2M) or human Fc (prefix H4H), were captured on their respective anti-Fc sensor surfaces (Mab capture format). […] Kinetic association (kₐ) and dissociation (kd) rate constants were determined by processing and fitting the data to a 1:1 binding model using Scrubber 2.0 curve fitting software.

human PDGFRb.mFc = biological target: T2, human PDGFRb.mFc; test: SPR, mAb captured, 25 C
Description: as §1

hPDGFRb.mmh [2] = biological target: T3, hPDGFRb.mmh (human, UniProt P09619 33-531); test: SPR, mAb captured, 25 C
T3 construct: Soluble monomeric construct; also called soluble human PDGFR-beta.mmh
T3 sequence (P09619 other isoform, or with tags, fused parts or gaps): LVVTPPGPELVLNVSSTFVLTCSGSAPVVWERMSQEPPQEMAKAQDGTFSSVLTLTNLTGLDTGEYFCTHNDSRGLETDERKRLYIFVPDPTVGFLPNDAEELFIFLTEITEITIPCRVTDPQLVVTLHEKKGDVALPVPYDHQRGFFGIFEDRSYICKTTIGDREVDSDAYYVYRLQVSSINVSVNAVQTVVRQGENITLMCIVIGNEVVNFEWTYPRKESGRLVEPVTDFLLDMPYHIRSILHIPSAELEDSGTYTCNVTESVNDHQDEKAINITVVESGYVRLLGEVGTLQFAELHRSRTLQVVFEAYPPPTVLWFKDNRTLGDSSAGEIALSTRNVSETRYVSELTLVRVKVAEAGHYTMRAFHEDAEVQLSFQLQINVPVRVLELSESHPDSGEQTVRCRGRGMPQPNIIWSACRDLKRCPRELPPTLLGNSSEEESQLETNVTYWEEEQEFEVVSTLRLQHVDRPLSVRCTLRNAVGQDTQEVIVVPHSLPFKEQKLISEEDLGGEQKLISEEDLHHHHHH
Description: as §1

hPDGFRb.mmh [3] = biological target: T3, hPDGFRb.mmh; test: SPR, mAb captured, 37 C
Description: as §1

[4] = biological target: full length human PDGFR-beta on HEK293 cells (human, UniProt P09619 33-1106); test: cell-based or functional assay
Chain of full length human PDGFR-beta on HEK293 cells (P09619 33-1106 limits assumed): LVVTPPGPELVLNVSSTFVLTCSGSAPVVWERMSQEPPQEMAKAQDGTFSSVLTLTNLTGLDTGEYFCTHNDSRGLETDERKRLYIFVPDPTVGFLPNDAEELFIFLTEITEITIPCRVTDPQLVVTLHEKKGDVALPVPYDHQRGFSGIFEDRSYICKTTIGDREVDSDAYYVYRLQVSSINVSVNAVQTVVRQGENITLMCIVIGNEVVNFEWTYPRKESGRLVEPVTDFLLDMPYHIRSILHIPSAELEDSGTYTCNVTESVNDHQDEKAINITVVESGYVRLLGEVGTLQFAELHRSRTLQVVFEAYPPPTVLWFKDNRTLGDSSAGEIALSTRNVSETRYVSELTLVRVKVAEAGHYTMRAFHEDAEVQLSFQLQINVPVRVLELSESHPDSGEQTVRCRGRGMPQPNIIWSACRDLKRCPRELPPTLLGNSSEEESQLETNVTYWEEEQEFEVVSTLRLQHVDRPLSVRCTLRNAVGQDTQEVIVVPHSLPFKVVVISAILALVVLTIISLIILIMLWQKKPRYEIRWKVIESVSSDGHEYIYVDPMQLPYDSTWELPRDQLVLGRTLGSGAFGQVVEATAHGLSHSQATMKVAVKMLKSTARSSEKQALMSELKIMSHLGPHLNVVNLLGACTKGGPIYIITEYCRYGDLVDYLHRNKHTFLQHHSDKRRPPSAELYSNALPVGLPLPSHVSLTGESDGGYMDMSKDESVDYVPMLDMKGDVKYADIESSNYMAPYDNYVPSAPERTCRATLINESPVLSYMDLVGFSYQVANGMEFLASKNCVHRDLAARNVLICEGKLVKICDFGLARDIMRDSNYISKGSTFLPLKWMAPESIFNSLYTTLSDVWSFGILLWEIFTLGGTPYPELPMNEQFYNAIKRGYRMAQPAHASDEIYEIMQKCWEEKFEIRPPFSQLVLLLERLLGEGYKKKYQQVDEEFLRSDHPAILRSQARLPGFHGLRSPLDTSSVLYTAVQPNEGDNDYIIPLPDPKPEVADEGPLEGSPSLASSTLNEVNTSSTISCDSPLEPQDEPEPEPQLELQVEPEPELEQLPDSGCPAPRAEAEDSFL

hPDGFRb.mmh [5] = biological target: T3, hPDGFRb.mmh; test: blocking ELISA, biot-hPDGFRb.mmh to coated PDGF-BB
Description: The equilibrated PDGFR-beta/antibody solutions were added to ligand-coated plates, allowed to incubate for 1 hr, and washed. Levels of bound biot-hPDGFR-beta.mmh were detected using HRP conjugated streptavidin. Data were analyzed using Prism software and IC₅₀ values were calculated as the amount of antibody required to achieve 50% reduction of hPDGFR-beta-mmh bound to ligand. Maximum blocking values were also calculated and reflect the ability of the antibody to block relative to baseline. The absorbance measured at the constant amount of 250 pM biot-hPDGFR-beta-mmh on the dose curve is defined as 0% blocking and the absorbance with no added PDGFR-beta is defined as 100%. The absorbance of the wells containing the highest antibody concentration determined the maximum blocking percent.

Row | Binder | Kd [1] [nM] | koff [1] [s⁻¹] | kon [1] [M⁻¹ s⁻¹] | t1/2 [1] [min] | Kd (human PDGFRb.mFc) [nM] | koff (human PDGFRb.mFc) [s⁻¹] | kon (human PDGFRb.mFc) [M⁻¹ s⁻¹] | t1/2 (human PDGFRb.mFc) [min] | Kd (hPDGFRb.mmh [2]) [nM] | koff (hPDGFRb.mmh [2]) [s⁻¹] | kon (hPDGFRb.mmh [2]) [M⁻¹ s⁻¹] | t1/2 (hPDGFRb.mmh [2]) [min] | Kd (hPDGFRb.mmh [3]) [nM] | koff (hPDGFRb.mmh [3]) [s⁻¹] | kon (hPDGFRb.mmh [3]) [M⁻¹ s⁻¹] | t1/2 (hPDGFRb.mmh [3]) [min] | IC50, blocking PDGF-BB (250 pM) activation, SRE-luciferase [4] [M] | IC50, blocking PDGF-DD (400 pM) activation, SRE-luciferase [4] [M] | % Maximum Blocking (hPDGFRb.mmh [5]) [%] | IC50 (hPDGFRb.mmh [5]) [nM]
1 | H2M3368N (antibody, V domains shown, mouse Fc (H2M prefix; isotype not spelled out)) VH: QVQLQQWGAGLLKPSETLSLTCAVYGGSFSGYYWTWIRQSPGKGLEWMGEISHRGTTNYNPSLKSRLTISLDTSNNHFSLKLSSVTAADTAVYYCAREERLGMGYDYFGLDVWGQGTTVTVSS VL: EIVLTQSPATLSLSPGERATLSCRASQSVSTYLTWYQQKPGQAPRLLIYDASNRATGIPARFSGSGSGTDFTLTISSLEPEDCAVYYCQQRSIWITFGQGTRLEIK | 30 | 0.000185 | 7000 | 63 | 0.313 | 3.7e-05 | 118000 | 313 | 7.41 | 0.000341 | 46100 | 34 | 6.17 | 0.000844 | 137000 | 14 | 1.8e-10 | 1.7e-10 | 79 | 0.13
2 | H2M3373N (antibody, V domains shown, mouse Fc (H2M prefix; isotype not spelled out)) VH: EVQLRDSGGGLVQPGGSLRLSCVASGFTFSSYWMSWVRQAPGKGLEWVVNINRDGSEKYYVDSVKGRFIISRDNTKNSLYLQMESLRAEDTAVYYCARDPPYHLYGMDVWGQGTTVTVSS VL: DIQMTQSPSSLSASVGDRVTITCRTSQGIRVDLAWYQQKPGKAPERLIYAASSLQSGVPSRFSGGGSGTEFTLTVSSLQPEDFATYYCLQHHNFPYTFGQGTKLEIK | 18.3 | 0.00238 | 130000 | 5 | 0.507 | 0.00024 | 473000 | 48 | 12.4 | 0.00235 | 189000 | 5 | 29.8 | 0.0122 | 410000 | 0.9 | 7e-11 | 9.2e-11 | 80 | 0.9
